Test [1] has as its target HDAC7 catalytic domain (residues 449–952) (human) (UniProt Q8WUI4). In words: ITC; HDAC7 at 50 µM in the cell, 25 °C; 26 injections of 1.5 µl of SMRT(1255–1452) wild type or alanine mutant at 300 µM; 50 mM KH2PO4/K2HPO4 pH 6.5, 100 mM KCl, 1 mM DTT, 1 mM β-ME; Kd values approximate (noise, aggregation of HDAC7). A general note: Isothermal titration calorimetry measures the heat released or taken up as one component is titrated into another.

In test [2] the target is HDAC7 catalytic domain (residues 449–952), wild type, purified (human) (UniProt Q8WUI4). In words: ITC; ITC200, HDAC7 50 µM in the cell, SMRT(1255–1452) wild type or alanine mutants 300 µM injected; 50 mM KH2PO4/K2HPO4 pH 6.5, 100 mM KCl, 1 mM DTT, 1 mM β-ME; 25 °C; hampered by precipitation of HDAC7.
The target of test [3] is GST-SMRT (1358–1391) R1381A (human). Nature of the test: pull-down; purified GST-peptide or GST control on glutathione sepharose beads, incubated 2 h at 4 °C with supernatant of an E. coli HDAC7 expression lysate; washes with PBS pH 7.3, 3 mM DTT, 0.05% Tween 20, 500 mM NaCl; anti-His western blot.
The target in test [4] is SMRT(1255-1452) (human) (UniProt Q9Y618). Nature of the test: MST; Monolith NT.115, SMRT(1255–1452) labelled with NT647, HDAC7 or HDAC7 C535A/H541A 20 nM to 20 µM; 25 mM Tris pH 8.0, 10 mM MgCl2, 150 mM KCl, 0.5% Tween-20; room temperature.
Test [5] has the same target. Nature of the test: SPR; Biacore 3000, SMRT(1255–1452) amine-coupled to a CM5 chip (5500 RU), HDAC7 injected at 500 nM to 8 µM; 50 mM KH2PO4/K2HPO4 pH 6.5, 100 mM KCl, 1 mM DTT; two-step (three-state) model, overall apparent Kd.
For test [6] the target is unchanged. In words: NMR titration; 15N-1H HSQC of labelled SMRT(1255–1452) titrated with unlabeled HDAC7 (1:0.72, 1:2.2, 1:3.8) or mixed with HDAC7 C535A/H541A (40 µM:144 µM, 1:3.6); peak intensities; 50 mM potassium phosphate, 100 mM KCl, 1 mM DTT, pH 6.5, 25 °C.
Test [7] shares this target. In words: NMR titration; 15N-labelled SMRT(1255-1452) with 0.72, 2.2 and 3.8 molar equivalents of unlabelled wt-HDAC7; relative HSQC peak intensities fitted to a bimolecular binding equation; 25 °C, 50 mM potassium phosphate pH 6.5, 100 mM KCl, 1 mM DTT; rough estimates, HDAC7 precipitated.

“SMRT(1255-1452) R1381A (from UniProt Q9Y618 1255-1452) (domain or fragment)” returned a Kd in test [1] of 55 µM.
“SMRT(1255-1452) K1384A (from UniProt Q9Y618 1255-1452) (domain or fragment)” registered a Kd in test [1] of 43 µM.
The molecule “SMRT(1255-1452) V1372A (from UniProt Q9Y618 1255-1452) (domain or fragment)” returned a Kd in test [1] of 37 µM.
“SMRT(1255-1452) E1376A (from UniProt Q9Y618 1255-1452) (domain or fragment)” came in with a Kd in test [1] of 34 µM.
With “SMRT(1255-1452) L1379A (from UniProt Q9Y618 1255-1452) (domain or fragment)”, the Kd in test [1] is 7.5 µM.
On to “SMRT(1255-1452) L1386A (from UniProt Q9Y618 1255-1452) (domain or fragment)”, for which, in test [1], the Kd turned out to be 28 µM.
Molecule “SMRT(1255–1452) R1381A (from UniProt Q9Y618 1255-1452) (domain or fragment)” displayed a fold reduction of affinity against wild-type SMRT(1255–1452) in test [2] of 4 fold.
“SMRT(1255–1452) (from UniProt Q9Y618 1255-1452) (domain or fragment)” displayed a Kd in test [2] of 14.1 µM.
For the molecule “SMRT(1255-1452) R1360A (from UniProt Q9Y618 1255-1452) (domain or fragment)”, in test [1], the Kd was 19 µM.

B1: HDAC7 (residues 449–952), wild type, hexahistidine-tagged, in E. coli expression lysate (domain or fragment)
chain: LLWEQQRLAGRLPRGSTGDTVLLPLAQGGHRPLSRAQSSPAAPASLSAPEPASQARVLSSSETPARTLPFTTGLIYDSVMLKHQCSCGDNSRHPEHAGRIQSIWSRLQERGLRSQCECLRGRKASLEELQSVHSERHVLLYGTNPLSRLKLDNGKLAGLLAQRMFVMLPCGGVGVDTDTIWNELHSSNAARWAAGSVTDLAFKVASRELKNGFAVVRPPGHHADHSTAMGFCFFNSVAIACRQLQQQSKASKILIVDWDVHHGNGTQQTFYQDPSVLYISLHRHDDGNFFPGSGAVDEVGAGSGEGFNVNVAWAGGLDPPMGDPEYLAAFRIVVMPIAREFSPDLVLVSAGFDAAEGHPAPLGGYHVSAKCFGYMTQQLMNLAGGAVVLALEGGHDLTAICDASEACVAALLGNRVDPLSEEGWKQKPNLNAIRSLEAVIRVHSKYWGCMQRLASCPDSWVPRVPGADKEEVEAVTALASLSVGILAEDRPSEQLVEEEEPMNL
For B1, the fold reduction of binding against wild-type GST-SMRT (1358–1391) in test [3] was determined as 4 fold.

B2: HDAC7 catalytic domain (residues 449–952), wild type, purified (domain or fragment)
chain: B1 chain
As for B2, the Kd was 2.8 µM in the test with SMRT(1255-1452) (human) [4], 2.1 µM with SMRT(1255-1452) (human) [5] and less than 40 µM with SMRT(1255-1452) (human) [6].

B3: HDAC7 catalytic domain (residues 449–952) (domain or fragment)
chain: B1 chain
On to B3, for which the Kd with SMRT(1255-1452) (human) [7] was 19 µM.
